From the RNAGym collection of RNA variant scans (doi:10.7554/elife.80360)

B1: HDV Ribozyme (parent)
chain: GGCCGGCAUGGUCCCAGCCUCCUCGCUGGCGCCGGCUGGGCAACAUUCCGAGGGGACCGUCCCCUCGGUAAUGGCGAAUGGGACCCA

Variants of: B1
Assay: self-cleavage, relative activity (ratio to wild type); higher = more cleavage; co-transcriptional

| Variant | self-cleavage |
| --- | --- |
| GGCCGGCAUGGUCCCAGCCUCCUCGCUGGCGCCGGCAGGGCAACAUUCCGAGGGGACCGUCCCCUCGGUAAUGGCGAAUAGGACCCA | 0.145 |
| AGCCGGCAUGGUCCCAGCCUCCUCGAUGGCGCCGGCUGGGCAACAUUCCGAGGGGACCGUCCCCUCGGUAAUGGCGAAUGGGACCCA | 0.119 |
| GGCCGGCAUGGUCCCAGCCCCCUCGCUGGCGCCGGCUGGGCAACAUUCCGAGGGGACCGUCCCCUCGGUAAUAGCGAAUGGGACCCA | 0 |
| GGCCGGCAUGGGCCCAGCCUCCUCGCUGGCGCCGGCUGGGCAACAUUCCGAGGGGGCCGUCCCCUCGGUAAUGGCGAAUGGGACCCA | 0.767 |
| GGCCGGCAUGGUCCCGGCCUCCUCGCUGGCGCCGGCUGGGCAACAUUCCGAGGGUACCGUCCCCUCGGUAAUGGCGAAUGGGACCCA | 0.914 |
| GGCCGGCAUGGGCCCAACCUCCUCGCUGGCGCCGGCUGGGCAACAUUCCGAGGGGACCGUCCCCUCGGUAAUGGCGAAUGGGACCCA | 0.277 |
| GGCCGGCAUGGUCCCAGCCUCCUCGCAGGCGCCGGCUGGGCAACAUUCCGAGGGGACCGUCCCCUCGGUAAGGGCGAAUGGGACCCA | 0.739 |
| GGCCGGCAUGGUCCCAGCCUCCUCGCUGGCGCCGGCUGGGCAACAUUCCGAGGGGACCGUCCCCUCGGUAAUGGCGUAUGGGAACCA | 0.291 |
| GGCCGGCAUGGUCCGAGCCUCCUCGCUGGCGCCGGCUGGGUAACAUUCCGAGGGGACCGUCCCCUCGGUAAUGGCGAAUGGGACCCA | 0.277 |
| GGCCGGCAUGGUCCCAGCCUCCUCGCUGGCGCCGGCUGGGCAACAUUCCGAGGGGACCGUUCCCUCGGUAAUGGCGAAUGUGACCCA | 0.273 |
| GGCCGGCAUGGUCCCAGCCUCCUCGCUGGCGCCGGCUGGGCAACAUUCCGAGGGGACCGUCCCCUCGGUAAUGGUAAAUGGGACCCA | 0.0852 |
| GGCCAGCAUGGUCCCAGCCUCCUCGCUGGCGCCGGCUGGGCAACAUUCCGAGGGGACCGUCCCCUCGGUAAUGGAGAAUGGGACCCA | 0.113 |
| GGCCGGCAUGGUCCCAGCCUCCUCGCUAGCGCCGGCUGGGCAACAUUCCGAGGGGACCGUCACCUCGGUAAUGGCGAAUGGGACCCA | 0.0297 |
| GGCCGGCAUGGUCCCAGCCUACUCGCUGGCGCCGGCUGGGCAACAUUCCGAGGGGACCGUCCCCUCGGUAAUGGCGAAUGGAACCCA | 0.0594 |
| UGCCGGCAUGGUCCCAGCCUCCUCGCUGUCGCCGGCUGGGCAACAUUCCGAGGGGACCGUCCCCUCGGUAAUGGCGAAUGGGACCCA | 0.308 |
| GGCCGGCAUGGUCCCAGCCUCCUCGCUGGCGCCGGCUGGGCAACAUUCCGAGGGGACAGUCCCCUCGGUAAUGCCGAAUGGGACCCA | 0.324 |

| Variant | self-cleavage |
| --- | --- |
| GGCCGGCAUGGUCCCAGCCUCCUCGCUGGCGCCGGCUGGGCAACAUUCCGAGGGGACCGUCCCCUCGGUAAUGGAGAAUGGGGCCCA | 0.0567 |
| GACCGGCAUGGUCCCAGCCUCCUCGCUGGCGCCGGCUGGGCAACAUUCGGAGGGGACCGUCCCCUCGGUAAUGGCGAAUGGGACCCA | 0.135 |
| GGCCGGCAUGGUCGCAGCCUCCUCGCUGGCGCCGGCUGGGUAACAUUCCGAGGGGACCGUCCCCUCGGUAAUGGCGAAUGGGACCCA | 0.462 |
| GGCCGGCAUGGUCCCAGCCUCCUAGCUGGCGCCGGCUGGGCAACAUUCCGAGGGGACCGCCCCCUCGGUAAUGGCGAAUGGGACCCA | 0.702 |
| GGCCGGCAUGGUCCCAGCCUCCUCGCUGGCGCCGGCCGGGCAACGUUCCGAGGGGACCGUCCCCUCGGUAAUGGCGAAUGGGACCCA | 0.762 |
| GGCCGGCAUGGUCCCAGCCUCCUCGCUGGCGCCGGCUGGGCAACAUUCCGAGGGGACCGUGCCCUCGGUAAUGGCGAAUGGGACACA | 0.935 |
| GGCCGGCAUGGUCCCAGCCUCCUCGCUGGCGCCGGUUGGGCAACAUUCCGAGGGGACCGUCCCCUCGGAAAUGGCGAAUGGGACCCA | 0.627 |
| GGCCGGCAUGGUUCCAGCCUCCUCGCUGGCGCCGGCUGGGCAACAUUCCGAGGGGACCGUCCCCUCGGUAUUGGCGAAUGGGACCCA | 0.494 |
| GGCCGGCAUGGUCACAGCCUCCUCGAUGGCGCCGGCUGGGCAACAUUCCGAGGGGACCGUCCCCUCGGUAAUGGCGAAUGGGACCCA | 0.966 |
| GGCCGGCAUGGUCCCAGCUUCGUCGCUGGCGCCGGCUGGGCAACAUUCCGAGGGGACCGUCCCCUCGGUAAUGGCGAAUGGGACCCA | 0.0692 |
| GGCCGACAUGGUCCCAUCCUCCUCGCUGGCGCCGGCUGGGCAACAUUCCGAGGGGACCGUCCCCUCGGUAAUGGCGAAUGGGACCCA | 0.0773 |
| GGCUGGCAUGGUCCCAGCCUCCUCGCUGGCGCCGGCUGGGCAACAUUCCGAGGGGACCGUCCCGUCGGUAAUGGCGAAUGGGACCCA | 0.538 |
| GGCCGGCAUGGUCCCUGCCUCCUCGCUGGCGCCGGCUGGGCAACAUUCCGAGGGGACCGUCCCCUCGGUAAUGGCGAAUGGGACCCA | 0.984 |
| GGUCGGCAUGGUCCCAGCCUCCUCGCUGGCGCCGGGUGGGCAACAUUCCGAGGGGACCGUCCCCUCGGUAAUGGCGAAUGGGACCCA | 0.0519 |
| GGCCGGCACGGUCCCAGCCUCCUCGCUGGCGCCGGCUGGGCAACAUUCCGAGGGGACCAUCCCCUCGGUAAUGGCGAAUGGGACCCA | 1.05 |
| GGCCGACAUGGUCCCAGCCUCCUCGCUGGCGCCGGCUGGGCAACAUUCCGAGGGGACCUUCCCCUCGGUAAUGGCGAAUGGGACCCA | 0.755 |
